Results as given in patent US20230203134A1 (TRUSTEES OF COLUMBIA UNIVERSITY IN THE CITY OF NEW YORK, published 2023).
Substitutions are numbered along the chain they refer to.

Assays:
[1] = biological target: T1, SARS-CoV-2 N-terminal domain (NTD) (SARS-CoV-2, UniProt P0DTC2 14-290); assay: ELISA (FIG. 10D-F)
T1 construct: range 1-290

[2] = biological target: T1, SARS-CoV-2 N-terminal domain (NTD); assay: quantitative ELISA
[3] = biological target: T1, SARS-CoV-2 N-terminal domain (NTD); assay: quantitative ELISA (FIG. 16C, F, I)
[4] = biological target: T1, SARS-CoV-2 N-terminal domain (NTD); assay: ELISA

B1: monoclonal antibody 4-18 (antibody, V domains shown)
VH: QVQLVESGGGVVQPGRSLRLSCAASGFTFSSYGMHWVRQAPGKGLEWVAVISYDGSNKHYADSVKGRFTISRDNSKNTLYLQMNSLRAEDTAVYYCAKDSGYNYGYSWFDPWGQGTLVTVSS
VL: SYELTQPPSVSVSPGQTARITCSADALAKQYAYWYQQKPGQAPVLVIYKDSERPSGIPERFSGSSSGTTVTLTISGVQAEDEADYYCQSTDNSGTYPNWVFGGGTKLTVL
notes: also called mAb 4-18; antibody number 4-18
binding result [1]: binds

B2: monoclonal antibody 2-7 (antibody, V domains shown)
VH: QITLKESGPTLVKPTQTLTLTCTFSGFSLSTSGVGVGWIRQPPGKALEWLALIYWDDDKRYSPSLKSRLTITKDTSKNQVVLTMTNMDPVDTATYYCAHHKIERIFDYWGQGTLVTVSS
VL: QSALAQPASVSGSPGQSITISCTGTSSDVGAYNYVSWYQQHPGKAPKLMIYDVSKRPSGVSNRFSGSKSGNTASLTISGLQAEDEADYYCSSYTTSSTVFGGGTKLTVL
notes: also called mAb 2-7; antibody number 2-7
binding result [2]: no binding

B3: monoclonal antibody 2-17 (antibody, V domains shown)
VH: QVQLVQSGAEVKKPGSSVKVSCKASGGTFSSYAISWVRQAPGQGLEWMGGNIPIFGTANYAQKFQGRVTITADESTSTAYMELSSLRSEDTAVYYCARGVGYRGVIPLNWFDPWGQGTVVTVSS
VL: EIVMTQSPATLSVSPGERATLSCRASQSVSSDLAWYQHKPGQAPRLLIYGASTRATGIPVRFSGSGSGTEFTLTISSLQSEDFAVYYCQQYNNWPPFTFGGGTKVEIK
notes: also called mAb 2-17; antibody number 2-17
binding result [3]: binds

B4: monoclonal antibody 4-20 (antibody, V domains shown)
VH: QVQLLQSGAEVKKPGASVKVSCKASGYSFTSYYMHWVRQAPGQGLEWMGIINPSGGGTTYAQKFQGRVTMTRDTSTSTVYMELSSLRSEDTAVYYCARPGGGSYQEFDYWGQGTLVTVSS
VL: DIQMTQSPSSLSASVGDRVTITCRASQSISSYLNWYQQKPGKAPKLLISAASSLQSGVPSRFSGSGSGTDFTLTISSLQPEDFATYYCQQSYNTLQVTFGGGTKVEIK
notes: also called mAb 4-20; antibody number 4-20
binding result [4]: no binding

B5: monoclonal antibody 2-38 (antibody, V domains shown)
VH: EVQLVESGGGLVKPGGSLRLSCAASGFTFSSYSMNWVRQAPGKGLEWVSSISSSSSYIYYADSVKGRFTISRDNAKNSLYLQMNSLRAEDTAVYYCTRAGWELRLDAFDIWGQGTMVTVSS
VL: SSELTQDPAVSVALGQTVRITCQGDSLRSSYASWYQQKPGQAPILVIYDKNNRPSGIPDRFSGSSSGNTASLTITGAQAEDEADYYCNSRDSSGILFGGGTKLTVL
notes: also called mAb 2-38; antibody number 2-38
binding result [2]: no binding

B6: monoclonal antibody 2-4 (antibody, V domains shown)
VH: QVQLVQSGAEVKKPGASVKVSCKASGYTFTGYYMHWVRQAPGQGLEWMGWINPNSGGTNYTQMFQGRVTMTRDTSISTAYMEVSRLRSDDTAVYYCARDRSWAVVYYYMDVWGKGTTVTVSS
VL: QSALTQPPSASGSPGQSVTISCTGTSSDVGGYNYVSWYQQHPGKAPKLMIYEVSKRPSGVPDRFSGSKSGNTASLTVSGLQAEDEADYYCSSYAGSNNLVFGGGTKLTVL
notes: also called mAb 2-4; antibody number 2-4
binding result [2]: no binding

B7: monoclonal antibody 1-68 (antibody, V domains shown)
VH: QVQLVQSGAEVKKPGASVKVSCKVSGYTLIELSMHWVRQAPGKGLEWMGGFDPEDAETIYAQKFQGRVTMTEDTSTDTAYMELSSLRSEDTAVYYCATGWAVAGSSDVWYYYYGMDVWGQGTTVTVSS
VL: QSALTQPPSVSGSPGQSVTISCTGTSSDVGSYNRVSWYQQPPGTAPKLMIYEVSNRPSGVPDRFSGSKSGNTASLTISGLQAEDEADYYCSSYTSSSTYVFGTGTKVTVL
notes: also called mAb 1-68; antibody number 1-68
binding result [1]: binds

B8: monoclonal antibody 1-87 (antibody, V domains shown)
VH: B7 VH with W100I, A103I, S105P, S106P, D107P, V108S, W109T
VL: B7 VL with P8A, V18I, S31G, R34Y, P41H, T44K, E52D, N55K, P61S, D62N
notes: also called mAb 1-87; antibody number 1-87
binding result [3]: binds

B9: monoclonal antibody 2-43 (antibody, V domains shown)
VH: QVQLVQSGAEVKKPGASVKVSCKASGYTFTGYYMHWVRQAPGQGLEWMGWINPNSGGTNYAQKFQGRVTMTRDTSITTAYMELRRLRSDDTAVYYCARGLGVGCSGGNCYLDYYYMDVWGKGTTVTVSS
VL: QSALTQPASVSGSPGQSITISCTGTSSDVGGYNYVSWYQQHPGKAPKLMIYDVSKRPSGVSNRFSGSKSGNTASLTISGLQAEDEGDYYCSSYTSSSTWVFGGGTKLTVL
notes: also called mAb 2-43; monoclonal Ab 2-43
binding result [4]: no binding

B10: monoclonal antibody 2-15 (antibody, V domains shown)
VH: QVQLVQSGAEVKKPGASVRVSCKASGYTFTGYYMHWVRQAPGQGLEWMGWINPISDGTNYAQKFQGWVTMTRDTSISTVYMELSRLRSDDTAVYYCARGGSRCSGGNCYGWAYDAFDIWGQGTMITVSS
VL: B9 VL with Y34F, G86A, Y88C, W99F, G103T, L107V
notes: also called mAb 2-15; antibody number 2-15
binding result [2]: no binding

B11: monoclonal antibody 1-20 (antibody, V domains shown)
VH: EVQLVESGGGLIQPGGSLRLSCAASGLTVSSNYMSWVRQAPGKGLEWVSVIYSGGSTFYADSVKGRFTISRDNSKNTLYLQMNSLRAEDTAVYYCARDLFYYGMDVWGQGTTVTVSS
VL: DIQLTQSPSFLSASVGDRVTITCRASQGISSYLAWYQQKPGKAPKLLIYAASTLQSGVPSRFSGSGSGTEFTLTISSLQPEDFATYYCQQLNSYPCFGPGTKVDIK
notes: also called mAb 1-20; antibody number 1-20
binding result [2]: no binding

B12: monoclonal antibody 2-51 (antibody, V domains shown)
VH: QVQLVQSGAEVKKPGASVKVSCKVSGYTLIELSMHWVRQAPGKGLEWMGGFDPEDVETIYAQQFQGRVTMTEDTSTDTAYMELSSLRSEDTAVYYCATGWAYKSTWYFGYWGQGTLVTVSS
VL: QSALTQPPSASGSPGQSVTISCTGTSSDVGGYNYVSWYQQHPGKAPKLMIYEVSKRPSGVPDRFSGSKSGNTASLTVSGLQAEDEADYYCSSYAGSRMGFGGGTKLTVL
notes: also called mAb 2-51; antibody number 2-51
binding result [4]: no binding

B13: monoclonal antibody 5-7 (antibody, V domains shown)
VH: QVQLVQSGAEVKKPGASVKVSCKASGYTFTSYYMHWVRQAPGQGLEWMGVINPSGGSTSYAEKFRGRVTMTRDTSTSTVYMELSSLRSEDTAVYYCARDREPHSDSSGYWDSLKYYYYYALDVWGQGTTVTVSS
VL: AIQLTQSPSSLSASVGDRVTITCRASQGISSYLAWYQQKPGKAPELLIYAASTLQSGVPSRFSGSGSGTDFTLTISSLQPEDFATYYCQQLNTYPFTFGPGTKVDIK
notes: also called mAb 5-7; antibody number 5-7
binding result [1]: binds

B14: monoclonal antibody 2-30 (antibody, V domains shown)
VH: QVQLVESGGGVVQPGRSLRLSCAASGFTFSSYTMHWVRQAPGKGLEWVAAISYDGNNKYYADSVKGRFTISRDNSKNTLYLQMNSLRAEDTAVYYCARSILYGGGMDVWGQGTTVTVSS
VL: B13 VL with A1D, K42Q, E45K, T93S, F96L, P100G, D105E
notes: also called mAb 2-30; antibody number 2-30
binding result [4]: no binding
